{
  "source": "patent US8629106B2",
  "about": "“Affinity peptides toward BMP-2” (Janssen Biotech, Inc., priority 2010, dated 2014)",
  "key": {"[1]": {"system": "MCHT-1/26 cells (mouse osteoblast cell line)", "assay": "Alkaline phosphatase bioactivity assay in the presence of BMP-2", "format": "cell-based", "settings": "peptide at 16, 160 and 800 nM, BMP-2 0-1000 ng/ml, 3 days, FIG. 7", "procedure": "In this experiment, we determined if the affinity peptides would interfere with the cell surface receptor binding to BMP-2 using mouse osteoblasts. The alkaline phosphatase (ALP) production was monitored the presence of BMP-2 with and without affinity peptides.\nPassage two MCHT-1/26 cells (mouse osteoblast cell line) were plated out in a 96 well plate the night before at 4500 cells/well. Cells were stimulated with serial dilution of BMP-2 in a range 0-1000 ng/ml in the presence or absence of 3 dilutions of peptide SEQ ID NO: 6 at 16, 160 and 800 nM. After incubation at 37° C. for 3 days, cells were lysed with lysis buffer (250 mM NaCl, 25 mM MgCl2 and 100 mM Tris, pH=8.0) overnight at 37° C. One third of the lysate was used for alkaline phosphatase assay with p-nitrophenylphosphate. The reaction was carried out at 37° C. for one to two hours. Next, the plate was read on an absorbance plate reader at a wavelength of 405 nm."}, "biotinylated BMP-2": {"biological_target": "T1, biotinylated BMP-2 (Homo sapiens, UniProt P12643)", "T1 construct": "purchased R&D Systems 355-BM/CF", "T1 sequence (P12643 283-396)": "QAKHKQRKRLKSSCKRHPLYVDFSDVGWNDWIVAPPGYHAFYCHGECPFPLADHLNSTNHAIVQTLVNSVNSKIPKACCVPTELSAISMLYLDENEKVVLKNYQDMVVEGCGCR", "assay": "Amplified luminescent proximity homogenous assay (ALPHA)", "format": "binding", "settings": "chemically synthesized peptides, FIG. 6, normalized to molar concentration", "procedure": "Concentration dependent binding efficiency of BMP-2 to the affinity peptides was evaluated using an ALPHA assay.\nDiluted stock of biotinylated BMP-2 (R&D Systems, Minneapolis, Minn., Item number 355-BM/CF) at 3.3 micrograms/ml was prepared in 2× assay buffer (PBS, 0.01% Tween-80, 0.05% BSA). Chemically synthesized peptides having SEQ ID NO: 1, SEQ ID NO: 2, SEQ ID NO: 3, and SEQ ID NO: 6 were prepared using standard, automated Fluorenylmethyloxycarbonyl (Fmoc) solid phase peptide synthesis procedures. Each peptide solution for the assay was prepared from a 100 microgram/mL stock solution. The stock solution was serially diluted in ½ log steps in assay buffer resulting in peptide concentrations of 100, 33.3, 11.1, 3.70, 1.23, 0.41, 0.14, 0.046, 0.015, 0.0051, 0.0017 and 0.00056 micrograms/mL. Subsequently, serially diluted peptides were added to the corresponding wells containing the 10 microliters of the 3.3 microgram/mL solution of biotinylated BMP-2. Final assay test concentration for biotinylated BMP-2 was 0.825 micrograms/mL. Final peptide concentrations were 25, 8.3, 2.8, 0.93, 0.31, 0.10, 0.03, 0.01, 0.003, 0.001, 0.0003 and 0.0001 micrograms/mL. Next, Nickel (Ni)-acceptor and streptavidin (SA)-donor beads (Perkin Elmer, Waltham, Mass., Item number 6760619M) were diluted 1:100 in assay buffer prior to adding 20 microliters to each test well. Controls included BMP-2 alone in three different concentrations as well as SA beads with no peptide. The plate was made light-safe with an aluminum seal and shaken for 45 minutes on a table-top shaker at room temperature. The emission of the plate was read using a dual wavelength fluorometer (Perkin Elmer (Waltham, Mass.) Envision 2101 Multilabel Reader).\nThe ALPHA data in FIG. 6 was normalized to molar concentration based on the molecular weights of the peptide sequences."}, "BMP-2": {"biological_target": "T2, BMP-2 (Homo sapiens, UniProt P12643)", "T2 construct": "purchased R&D Systems 355-BM/CF", "T2 sequence (P12643 283-396)": "T1 sequence (P12643 283-396)", "assay": "Mutant phage ELISA (serine scan)", "format": "binding", "settings": "FIG. 11A, FIG. 11B", "text": "Mutants of SEQ ID NO: 3 and SEQ ID NO: 6 were constructed by performing a serine scan where residues of the wild type were substituted with serine. […] SEQ ID NO: 24 through SEQ ID NO: 28 are mutants of SEQ ID NO: 3. SEQ ID NO: 29 through SEQ ID NO: 32 are mutants of SEQ ID NO: 6.\nThe respective custom oligonucleotide was obtained from Integrated DNA Technologies. The oligonucletides were inserted into the pIX gene using standard protocols. First, the oligonucletides were phosphorylated using T4 polynucleotide kinase. Next, the phosphorylated oligonucletides were annealed to the ssDNA template. Using the Kunkel method, the annealed DNA was ligated using T4 DNA ligase and T7 DNA polymerase. The resultant DNA was isolated using isopropanol precipitation and a gel was run to confirm the reaction. Lastly, electro-competent E. coli cells were transformed with the purified DNA and were plated out onto 2xYT/Tet/Xgal agar plates and allowed to grow overnight to isolate single colonies. An aliquot of the transformed cells was allowed to grow overnight at 37° C. while shaking in 50 mL 2xYT/tet media. The phage were then PEG precipitated following the procedure in Example 1. A phage titration was performed to determine the concentration of phage for the ELISA assay as described in Example 2. ELISA assays were performed following the procedure in Example 3."}, "hIgG": {"system": "hIgG", "assay": "Cross-reactivity phage ELISA assay toward hIgG", "format": "binding, human", "settings": "relative luminescence, N=2", "procedure": "(§1) In this experiment, we are confirming the binding of the phage identified in Example 1 to BMP-2.\n(§2) 96-well black ELISA plates were coated with streptavidin (Rows A through D), hIgG (Rows E and F) and human serum albumin (Rows G and H), at a concentration of 5 micrograms/mL in PBS. Plates were incubated overnight at 4° C. Plates were washed 3 times with TBST using a plate washer. To the streptavidin-coated wells in rows C and D, 100 microliters of a 4 micrograms/mL solution of biotinylated-BMP-2 (R&D Systems, Minneapolis, Minn., Item number 355-BM/CF), was introduced and allowed to sit at room temperature for 30 minutes. To all other wells, 100 microliters of PBS was introduced. The plates were again washed 3 times with TBST using the plate washer. The wells were then blocked with 250 microliters of a 3% dehydrated milk suspension in TBST and allowed to sit at room temperature for a minimum of 1 hour. Using phage concentrations determined by the phage titrations, dilutions of the phage stock solutions were performed in a separate 96-well plate to result in phage concentrations of 10^10, 10^9, 10^8, 10^7, 10^6 and 10^5 phage/well. […] The luminescence was read using a luminometer set with a gain of 150.\n(§3) The phage ELISA data in FIG. 3, FIG. 4 and FIG. 5 show relative luminescence and have an N value of 2. […]"}, "[2]": {"biological_target": "human serum albumin (HSA) (Homo sapiens, UniProt P02768)", "assay": "Cross-reactivity phage ELISA assay toward human serum albumin", "format": "binding", "settings": "relative luminescence, N=2", "procedure": "as §1, §2, §3"}},
  "note": "No end group written: not given here.",
  "data": [
    {"substance": "AGRDSFNLLTSSPLPST [SEQ ID NO: 6]", "values": [
      {"measurement": "effect on the ALP production of mouse osteoblasts", "setting": "[1]", "value": "minimal effect"},
      {"measurement": "ranking according to concentration-dependent binding to BMP-2", "setting": "biotinylated BMP-2", "value": "SEQ ID NO: 6>SEQ ID NO: 3>SEQ ID NO: 2>SEQ ID NO: 1"}
    ]},
    {"substance": "AGYTSFALLKSAESTLP [SEQ ID NO: 3]", "values": [
      {"measurement": "ranking according to concentration-dependent binding to BMP-2", "setting": "biotinylated BMP-2", "value": "SEQ ID NO: 6>SEQ ID NO: 3>SEQ ID NO: 2>SEQ ID NO: 1"}
    ]},
    {"substance": "SEQ ID NO: 2: affinity peptide toward BMP-2 identified by pIX phage display, sequence in FIG. 1 (AGPPGPYIAASAFLALK)", "values": [
      {"measurement": "ranking according to concentration-dependent binding to BMP-2", "setting": "biotinylated BMP-2", "value": "SEQ ID NO: 6>SEQ ID NO: 3>SEQ ID NO: 2>SEQ ID NO: 1"}
    ]},
    {"substance": "SEQ ID NO: 33: a fragment of SEQ ID NO: 3, shown in FIG. 12 (AGYTSFALLKS)", "values": [
      {"measurement": "binding to BMP-2 in mutant phage ELISA", "setting": "BMP-2", "value": "important for binding to BMP-2"}
    ]},
    {"substance": "SEQ ID NO: 1: affinity peptide toward BMP-2 identified by pIX phage display, sequence in FIG. 1 (AGLPLQSMSRLSYDSLS)", "values": [
      {"measurement": "ranking according to concentration-dependent binding to BMP-2", "setting": "biotinylated BMP-2", "value": "SEQ ID NO: 6>SEQ ID NO: 3>SEQ ID NO: 2>SEQ ID NO: 1"}
    ]},
    {"substance": "SEQ ID NO: 34: a fragment of SEQ ID NO: 6, shown in FIG. 12 (AGRDSFNLLTS)", "values": [
      {"measurement": "binding to BMP-2 in mutant phage ELISA", "setting": "BMP-2", "value": "important for binding to BMP-2"}
    ]},
    {"substance": "SEQ ID NO: 4: affinity peptide toward BMP-2 identified by pIX phage display, sequence in FIG. 1 (AGFRWWHTQPAHTLSYT)", "values": [
      {"measurement": "cross-reactivity with hIgG", "setting": "hIgG", "value": "binds to both hIgG and HSA"},
      {"measurement": "cross-reactivity with HSA", "setting": "[2]", "value": "binds to both hIgG and HSA"}
    ]}
  ]
}
